From US20240238445A1, “INHIBITORS AND USES THEREOF” (NEURACLE SCIENCE CO., LTD., priority 2021, published 2024)

B1: LRRC4B (453-576): LRRC4B ectodomain fragment, amino acids 453-576 of SEQ ID NO: 2; FLAG-tagged or hFc-fused (protein)
chain: VSAVDPVAAGGTGSGGGGPGGSGGVGGGSGGYTYFTTVTVETLETQPGEEALQPRGTEKEPPGPTTDGVWGGGRPGDAAGPASSSTTAPAPRSSRPTEKAFTVPITDVTENALKDLDDVMKTTK
modifications: FLAG tag or human Fc
notes: FLAG-tagged or hFc-fused

Key:
[1] = biological target: binding of FAM19A5 protein to LRRC4B (amino acids 453-576)-hFc (Homo sapiens, UniProt Q7Z5A7); test: Competitive inhibition assay, plate coated with LRRC4B (amino acids 453-576)-hFc, peptides at 20 nM
binding of FAM19A5 protein to LRRC4B (amino acids 453-576)-hFc, sequence (Q7Z5A7 44-132): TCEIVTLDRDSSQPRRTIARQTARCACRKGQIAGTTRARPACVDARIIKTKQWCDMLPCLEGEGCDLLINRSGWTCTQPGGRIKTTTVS
Text: Next, to assess whether polypeptides comprising the binding domains of LRRC4 or LRRC4C proteins can have similar inhibitory effects on LRRC4B protein binding, the following synthetic peptides were constructed: (1) FBC4-23 (contains the binding domain of the LRRC4 protein, i.e., YSFFTTVTVETTE); and (2) FBC4C-23 (contains the binding domain of the LRRC4C protein, i.e., FSYFSTVTVETME). Then, the ability of the peptides to inhibit the binding of LRRC4 protein family members to FAM19A5 protein was assessed using a competitive inhibition assay. Briefly, plates were coated with 100 nM of either LRRC4B protein fragment #1 (amino acids 36-576 of SEQ ID NO: 2; SEQ ID NO: 5) or LRRC4B protein fragment #2 (amino acids 453-576 of SEQ ID NO: 2; SEQ ID NO: 7). Then, recombinant FAM19A5 protein (5 ng/ml for plates coated with LRRC4B fragment #1; and 1 ng/mL for plates coated with LRRC4B fragment #2) was added to the plates in combination with 20 nM of the FBC4-23, FBC4C-23, and FB-20 peptides. The plates were incubated at 37° C. and then, the amount of FAM19A5 protein bound to the coated LRRC4B protein fragments was assessed using HRP-conjugated anti-FAM19A5 (1-65) antibody.
Next, to determine the minimal sequence required to inhibit the interaction of FAM19A5 and members of the LRRC4 protein family, ten FB-20 peptide variants were constructed by serially deleting one or more amino acids from the N-terminus or C-terminus of the FB-20 peptide. Then, a competitive inhibition assay was used to assess the ability of the different FB-20 peptide variants to inhibit the interaction between FAM19A5 and LRRC4B protein. Again, plates were coated with 100 nM of either LRRC4B protein fragment #1 (amino acids 36-576 of SEQ ID NO: 2; SEQ ID NO: 5) or LRRC4B protein fragment #2 (amino acids 453-576 of SEQ ID NO: 2; SEQ ID NO: 7). Then, recombinant FAM19A5 protein (5 ng/ml for plates coated with LRRC4B fragment #1; and 1 ng/mL for plates coated with LRRC4B fragment #2) was added to the plates in combination with 20 nM of the different peptides described above. After incubating the plates at 37° C., the amount of FAM19A5 protein bound to the coated LRRC4B protein fragments was assessed using HRP-conjugated anti-FAM19A5 (1-65) antibody.
To identify the critical amino acid residues, multiple FB-20 peptide mutants were constructed, in which the individual residues of the core binding domain (i.e., YTYFTTVTVETLE; SEQ ID NO: 15) were substituted with alanine (A) or asparagine (N). Then, the ability of these FB-20 peptide mutants to inhibit the interaction between LRRC4B and FAM19A5 proteins was assessed, as described in Examples 3 and 4.

[2] = test system: APP/PS1 mice (Alzheimer mouse model); test: Synaptic formation in hippocampal CA1 and CA3 of APP/PS1 mice; format: in vivo; conditions: 30 mg/kg intravenous, four consecutive weeks, compared to mutant LRRC4B protein fragment
Experimental: FIGS. 16A, 16B, and 16C show the ability of LRRC4B peptide fragment (amino acid residues 453-576 of SEQ ID NO: 2; “WT”) (i.e., SEQ ID NO: 7) to promote synaptic formation in the hippocampal CA1 of APP/PS1 mice. As further described in Example 8, APP/PS1 mice were treated with the LRRC4B peptide fragment (30 mg/kg; intravenous administration) for four consecutive weeks, and then synaptic formation was assessed by fluorescence microscopy using antibodies against SYP and PSD95. Control animals received no treatment (“Cont”) or the mutant LRRC4B peptide fragment […] (i.e., comprising alanine substitutions at positions 488 and 489 of SEQ ID NO: 2; SEQ ID NO: 16). FIG. 16A provides representative fluorescent photomicrographs. FIGS. 16B and 16C show the SYP and PSD95 intensity, respectively.
FIGS. 17A, 17B, and 17C show the ability of LRRC4B peptide fragment (amino acid residues 453-576 of SEQ ID NO: 2; “WT”; SEQ ID NO: 7) to promote synaptic formation in the hippocampal CA3 of APP/PS1 mice. The animals were treated and analyzed as described in FIGS. 16A-16C. FIG. 17A provides representative fluorescent photomicrographs. FIGS. 17B and 17C show the SYP and PSD95 intensity, respectively.
Additionally, to confirm the above effect on neurite outgrowth in vivo, APP/PS1 mice (Alzheimer mouse model) were used. […] Hong et al., Science 352(6286): 712-716 (May 2016). […]

Molecule | Inhibition rate (%) LRRC4B (amino acids 453-576)-hFc ([1]; Table 8, 20 nM peptide, FAM19A5 1 ng/mL) [%] | Inhibition rate (%) LRRC4B (amino acids 453-576)-hFc ([1]; Table 9, deletion variants, 20 nM peptide, FAM19A5 1 ng/mL) [%] | Inhibition rate (%) LRRC4B (amino acids 453-576)-hFc ([1]; Table 10, alanine/asparagine mutants) [%] | SYP and PSD95 immunoreactivities in CA1 and CA3 [2]
GYTYFTTVTVETLETQPGEE [FB-20] | 63.2 | 62.0 | 63.2 | 
B1 |  |  |  | increased SYP and PSD95 immunoreactivities in CA1 and CA3
